Reference: patent US20250257110A1

Target: TAG72 antigen (tumor associated glycoprotein-72)
Experiment: method not stated; scFv affinity toward TAG72 antigen

original humanized CC49 scFv (IDEC) was tested, and the Kd was 33 nM.
